Data published in article PMC12809078 (2025).

Target: CtBP2_(31-364)-StrepI (human, UniProt P56545 31-364)
Assay: ITC

Kd: 7.2 µM
B1: G9a peptide encompassing residues 881 to 893 (peptide)
peptide: NKEGDTAWDLTPE
